# Test results from patent publication US20240117018A1.
# Legend:
# Assay in all cases: cell-based or functional assay
# [1] = target: Env of HIV-1 pseudovirus 1056_10_TA11_1826 (HIV-1)
# [2] = target: Env of HIV-1 pseudovirus 246F C1G (HIV-1)
# [3] = target: Env of HIV-1 pseudovirus 6240_08_TA5_4622 (HIV-1)
# [4] = target: Env of HIV-1 pseudovirus CAP45.2.00.G3 (HIV-1)
# [5] = target: Env of HIV-1 pseudovirus CNE19 (HIV-1)
# [6] = target: Env of HIV-1 pseudovirus CNE20 (HIV-1)
# [7] = target: Env of HIV-1 pseudovirus CNE21 (HIV-1)
# [8] = target: Env of HIV-1 pseudovirus CNE58 (HIV-1)
# [9] = target: Env of HIV-1 pseudovirus Ce1176_A3 (HIV-1)
# [10] = target: Env of HIV-1 pseudovirus Du172.17 (HIV-1)
# [11] = target: Env of HIV-1 pseudovirus HIV-001428-2.42 (HIV-1)
# [12] = target: Env of HIV-1 pseudovirus Q461.e2 (HIV-1)
# [13] = target: Env of HIV-1 pseudovirus REJO4541.67 (HIV-1)
# [14] = target: Env of HIV-1 pseudovirus THRO4156.18 (HIV-1)
# [15] = target: Env of HIV-1 pseudovirus ZM135M.PL10a (HIV-1)
# [16] = target: HIV-1 Env pseudovirus 0815.v3.c3 (HIV-1)
# [17] = target: HIV-1 Env pseudovirus 231966.c02 (HIV-1)
# [18] = target: HIV-1 Env pseudovirus 6480.v4.c25 (HIV-1)
# [19] = target: HIV-1 Env pseudovirus 89-F1_2_25 (HIV-1)
# [20] = target: HIV-1 Env pseudovirus A07412M1.vrc12 (HIV-1)
# [21] = target: HIV-1 Env pseudovirus C3347.c11 (HIV-1)
# [22] = target: HIV-1 Env pseudovirus C4118.c09 (HIV-1)
# [23] = target: HIV-1 Env pseudovirus P0402_c2_11 (HIV-1)
# [24] = target: HIV-1 Env pseudovirus P1981_C5_3 (HIV-1)
# [25] = target: HIV-1 Env pseudovirus R2184.c04 (HIV-1)
# [26] = target: HIV-1 Env pseudovirus T251-18 (HIV-1)
substance,measurement,setting,value
PG16 (antibody),IC50,[1],0.315 µg/mL
same,IC80,[1],1.95 µg/mL
same,IC50,[2],> 50 µg/mL
same,IC80,[2],> 50 µg/mL
same,IC50,[3],> 50 µg/mL
same,IC80,[3],> 50 µg/mL
same,IC50,[4],0.001 µg/mL
same,IC80,[4],0.003 µg/mL
same,IC50,[5],0.024 µg/mL
same,IC80,[5],3.07 µg/mL
same,IC50,[6],3.63 µg/mL
same,IC80,[6],47.2 µg/mL
same,IC50,[7],0.007 µg/mL
same,IC80,[7],0.026 µg/mL
same,IC50,[8],0.044 µg/mL
same,IC80,[8],0.25 µg/mL
same,IC50,[9],0.003 µg/mL
same,IC80,[9],0.011 µg/mL
same,IC50,[10],0.033 µg/mL
same,IC80,[10],0.213 µg/mL
same,IC50,[11],0.039 µg/mL
same,IC80,[11],0.25 µg/mL
same,IC50,[12],1.75 µg/mL
same,IC80,[12],> 50 µg/mL
same,IC50,[13],0.039 µg/mL
same,IC80,[13],13.4 µg/mL
same,IC50,[14],6.83 µg/mL
same,IC80,[14],> 50 µg/mL
same,IC50,[15],> 50 µg/mL
same,IC80,[15],> 50 µg/mL
PG9 (antibody),IC50,[1],6.34 µg/mL
same,IC80,[1],38.3 µg/mL
same,IC50,[2],> 50 µg/mL
same,IC80,[2],> 50 µg/mL
same,IC50,[3],1.75 µg/mL
same,IC80,[3],6.33 µg/mL
same,IC50,[4],0.007 µg/mL
same,IC80,[4],0.029 µg/mL
same,IC50,[5],0.024 µg/mL
same,IC80,[5],0.146 µg/mL
same,IC50,[6],0.052 µg/mL
same,IC80,[6],0.278 µg/mL
same,IC50,[7],0.038 µg/mL
same,IC80,[7],0.094 µg/mL
same,IC50,[8],0.038 µg/mL
same,IC80,[8],0.122 µg/mL
same,IC50,[9],0.014 µg/mL
same,IC80,[9],0.044 µg/mL
same,IC50,[10],0.606 µg/mL
same,IC80,[10],1.6 µg/mL
same,IC50,[11],0.101 µg/mL
same,IC80,[11],0.25 µg/mL
same,IC50,[12],1.48 µg/mL
same,IC80,[12],8.72 µg/mL
same,IC50,[13],0.012 µg/mL
same,IC80,[13],0.163 µg/mL
same,IC50,[14],24.5 µg/mL
same,IC80,[14],> 50 µg/mL
same,IC50,[15],20.6 µg/mL
same,IC80,[15],> 50 µg/mL
10-1074 (antibody),IC50,[1],0.038 µg/mL
same,IC80,[1],0.272 µg/mL
same,IC50,[2],0.022 µg/mL
same,IC80,[2],0.111 µg/mL
same,IC50,[3],0.068 µg/mL
same,IC80,[3],0.306 µg/mL
same,IC50,[4],> 50 µg/mL
same,IC80,[4],> 50 µg/mL
same,IC50,[5],50 µg/mL
same,IC80,[5],> 50 µg/mL
same,IC50,[6],< 0.001 µg/mL
same,IC80,[6],0.005 µg/mL
same,IC50,[7],0.067 µg/mL
same,IC80,[7],0.181 µg/mL
same,IC50,[8],0.267 µg/mL
same,IC80,[8],0.968 µg/mL
same,IC50,[9],0.019 µg/mL
same,IC80,[9],0.07 µg/mL
same,IC50,[10],0.121 µg/mL
same,IC80,[10],0.43 µg/mL
same,IC50,[11],0.044 µg/mL
same,IC80,[11],0.261 µg/mL
same,IC50,[12],> 50 µg/mL
same,IC80,[12],> 50 µg/mL
same,IC50,[13],> 50 µg/mL
same,IC80,[13],> 50 µg/mL
same,IC50,[14],> 50 µg/mL
same,IC80,[14],> 50 µg/mL
same,IC50,[15],0.069 µg/mL
same,IC80,[15],0.367 µg/mL
8ANC195 (antibody),IC50 (Titer in TZM.bl cells),[16],1.94 µg/mL
same,IC80 (Titer in TZM.bl cells),[16],1.94 µg/mL
same,IC50 (Titer in TZM.bl cells),[17],0.54 µg/mL
same,IC80 (Titer in TZM.bl cells),[17],2.98 µg/mL
same,IC50 (Titer in TZM.bl cells),[18],0.16 µg/mL
same,IC80 (Titer in TZM.bl cells),[18],1.13 µg/mL
same,IC50 (Titer in TZM.bl cells),[19],> 50 µg/mL
same,IC80 (Titer in TZM.bl cells),[19],> 50 µg/mL
same,IC50 (Titer in TZM.bl cells),[20],2.25 µg/mL
same,IC80 (Titer in TZM.bl cells),[20],7.49 µg/mL
same,IC50 (Titer in TZM.bl cells),[21],> 50 µg/mL
same,IC80 (Titer in TZM.bl cells),[21],> 50 µg/mL
same,IC50 (Titer in TZM.bl cells),[22],0.2 µg/mL
same,IC80 (Titer in TZM.bl cells),[22],0.71 µg/mL
same,IC50 (Titer in TZM.bl cells),[23],0.62 µg/mL
same,IC80 (Titer in TZM.bl cells),[23],6.35 µg/mL
same,IC50 (Titer in TZM.bl cells),[24],0.14 µg/mL
same,IC80 (Titer in TZM.bl cells),[24],1.15 µg/mL
same,IC50 (Titer in TZM.bl cells),[25],0.09 µg/mL
same,IC80 (Titer in TZM.bl cells),[25],13 µg/mL
same,IC50 (Titer in TZM.bl cells),[26],1.51 µg/mL
same,IC80 (Titer in TZM.bl cells),[26],1.51 µg/mL
VRC07 (antibody),IC50 (Titer in TZM.bl cells),[16],0.015 µg/mL
same,IC80 (Titer in TZM.bl cells),[16],0.051 µg/mL
same,IC50 (Titer in TZM.bl cells),[17],0.105 µg/mL
same,IC80 (Titer in TZM.bl cells),[17],0.471 µg/mL
same,IC50 (Titer in TZM.bl cells),[18],0.032 µg/mL
same,IC80 (Titer in TZM.bl cells),[18],0.134 µg/mL
same,IC50 (Titer in TZM.bl cells),[19],> 50 µg/mL
same,IC80 (Titer in TZM.bl cells),[19],> 50 µg/mL
same,IC50 (Titer in TZM.bl cells),[20],0.11 µg/mL
same,IC80 (Titer in TZM.bl cells),[20],0.353 µg/mL
same,IC50 (Titer in TZM.bl cells),[21],0.06 µg/mL
same,IC80 (Titer in TZM.bl cells),[21],0.38 µg/mL
same,IC50 (Titer in TZM.bl cells),[22],0.121 µg/mL
same,IC80 (Titer in TZM.bl cells),[22],0.444 µg/mL
same,IC50 (Titer in TZM.bl cells),[23],0.085 µg/mL
same,IC80 (Titer in TZM.bl cells),[23],0.422 µg/mL
same,IC50 (Titer in TZM.bl cells),[24],0.213 µg/mL
same,IC80 (Titer in TZM.bl cells),[24],0.609 µg/mL
same,IC50 (Titer in TZM.bl cells),[25],0.02 µg/mL
same,IC80 (Titer in TZM.bl cells),[25],0.104 µg/mL
same,IC50 (Titer in TZM.bl cells),[26],1.32 µg/mL
same,IC80 (Titer in TZM.bl cells),[26],6.49 µg/mL
3BNC117 (antibody),IC50 (Titer in TZM.bl cells),[16],0.01 µg/mL
same,IC80 (Titer in TZM.bl cells),[16],0.02 µg/mL
same,IC50 (Titer in TZM.bl cells),[17],0.29 µg/mL
same,IC80 (Titer in TZM.bl cells),[17],2.37 µg/mL
same,IC50 (Titer in TZM.bl cells),[18],0.01 µg/mL
same,IC80 (Titer in TZM.bl cells),[18],0.04 µg/mL
same,IC50 (Titer in TZM.bl cells),[19],> 50 µg/mL
same,IC80 (Titer in TZM.bl cells),[19],> 50 µg/mL
same,IC50 (Titer in TZM.bl cells),[20],0.02 µg/mL
same,IC80 (Titer in TZM.bl cells),[20],0.1 µg/mL
same,IC50 (Titer in TZM.bl cells),[21],0.03 µg/mL
same,IC80 (Titer in TZM.bl cells),[21],0.13 µg/mL
same,IC50 (Titer in TZM.bl cells),[22],0.09 µg/mL
same,IC80 (Titer in TZM.bl cells),[22],0.52 µg/mL
same,IC50 (Titer in TZM.bl cells),[23],0.06 µg/mL
same,IC80 (Titer in TZM.bl cells),[23],0.38 µg/mL
same,IC50 (Titer in TZM.bl cells),[24],0.74 µg/mL
same,IC80 (Titer in TZM.bl cells),[24],3.62 µg/mL
same,IC50 (Titer in TZM.bl cells),[25],0.03 µg/mL
same,IC80 (Titer in TZM.bl cells),[25],0.1 µg/mL
same,IC50 (Titer in TZM.bl cells),[26],0.26 µg/mL
same,IC80 (Titer in TZM.bl cells),[26],0.82 µg/mL
